*: point of attachment. βGlcNAc = CC(=O)N[C@@H]1[C@@H](O)[C@H](O)[C@@H](CO)O[C@H]1*

Assay [1] concerns the target T1, human O-GlcNAcase (hOGA), wild-type (human) (UniProt O60502).
T1 sequence: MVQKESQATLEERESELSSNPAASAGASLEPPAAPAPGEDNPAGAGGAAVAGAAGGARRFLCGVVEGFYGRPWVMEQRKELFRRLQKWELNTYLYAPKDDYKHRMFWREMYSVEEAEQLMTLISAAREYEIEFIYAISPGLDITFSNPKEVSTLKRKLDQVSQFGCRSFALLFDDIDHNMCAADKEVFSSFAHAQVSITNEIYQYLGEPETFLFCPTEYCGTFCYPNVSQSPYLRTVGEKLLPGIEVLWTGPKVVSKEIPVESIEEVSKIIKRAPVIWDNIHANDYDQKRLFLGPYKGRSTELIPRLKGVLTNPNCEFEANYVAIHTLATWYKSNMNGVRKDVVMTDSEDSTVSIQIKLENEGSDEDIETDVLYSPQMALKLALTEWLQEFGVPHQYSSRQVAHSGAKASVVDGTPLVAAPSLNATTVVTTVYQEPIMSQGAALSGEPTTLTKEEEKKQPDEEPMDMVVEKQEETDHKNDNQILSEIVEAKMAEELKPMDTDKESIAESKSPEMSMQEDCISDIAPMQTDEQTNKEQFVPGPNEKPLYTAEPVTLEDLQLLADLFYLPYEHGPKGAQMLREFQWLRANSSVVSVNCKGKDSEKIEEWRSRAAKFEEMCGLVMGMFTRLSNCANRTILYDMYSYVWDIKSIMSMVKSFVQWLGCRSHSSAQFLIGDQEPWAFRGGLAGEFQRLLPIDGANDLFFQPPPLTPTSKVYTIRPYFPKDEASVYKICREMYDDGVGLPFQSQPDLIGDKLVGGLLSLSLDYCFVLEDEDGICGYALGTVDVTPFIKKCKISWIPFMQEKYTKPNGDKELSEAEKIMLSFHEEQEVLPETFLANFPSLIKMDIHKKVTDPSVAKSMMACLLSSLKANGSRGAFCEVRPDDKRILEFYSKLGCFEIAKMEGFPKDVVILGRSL

Assay [2] has as its target T2, human O-GlcNAcase (hOGA) Y69S (human) (UniProt O60502).
T2 sequence: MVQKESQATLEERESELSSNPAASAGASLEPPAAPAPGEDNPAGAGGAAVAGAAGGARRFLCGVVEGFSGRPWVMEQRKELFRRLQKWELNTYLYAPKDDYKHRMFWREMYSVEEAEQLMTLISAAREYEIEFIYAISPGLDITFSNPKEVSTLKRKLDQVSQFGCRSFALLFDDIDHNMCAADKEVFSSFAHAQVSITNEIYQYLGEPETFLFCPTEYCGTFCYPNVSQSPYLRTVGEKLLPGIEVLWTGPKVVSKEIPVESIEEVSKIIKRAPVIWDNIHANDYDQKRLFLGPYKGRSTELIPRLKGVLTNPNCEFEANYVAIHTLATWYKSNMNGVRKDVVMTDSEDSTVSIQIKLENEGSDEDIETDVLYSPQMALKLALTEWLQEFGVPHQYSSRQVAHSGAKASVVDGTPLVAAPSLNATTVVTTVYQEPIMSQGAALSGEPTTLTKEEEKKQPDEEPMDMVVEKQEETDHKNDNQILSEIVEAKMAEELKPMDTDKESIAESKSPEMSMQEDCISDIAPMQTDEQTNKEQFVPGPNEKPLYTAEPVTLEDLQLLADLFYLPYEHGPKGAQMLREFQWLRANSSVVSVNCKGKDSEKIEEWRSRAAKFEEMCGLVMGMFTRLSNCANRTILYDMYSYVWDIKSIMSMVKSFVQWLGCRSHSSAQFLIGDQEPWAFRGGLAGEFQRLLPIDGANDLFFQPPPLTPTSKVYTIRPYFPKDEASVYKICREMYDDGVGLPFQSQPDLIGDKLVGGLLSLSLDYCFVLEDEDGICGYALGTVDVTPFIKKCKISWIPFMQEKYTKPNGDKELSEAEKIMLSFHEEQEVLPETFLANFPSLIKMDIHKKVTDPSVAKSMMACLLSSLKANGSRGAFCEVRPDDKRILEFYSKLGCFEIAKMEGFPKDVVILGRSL

Assay [3] addresses T3, human O-GlcNAcase (hOGA) Y69Q (human) (UniProt O60502).
T3 sequence: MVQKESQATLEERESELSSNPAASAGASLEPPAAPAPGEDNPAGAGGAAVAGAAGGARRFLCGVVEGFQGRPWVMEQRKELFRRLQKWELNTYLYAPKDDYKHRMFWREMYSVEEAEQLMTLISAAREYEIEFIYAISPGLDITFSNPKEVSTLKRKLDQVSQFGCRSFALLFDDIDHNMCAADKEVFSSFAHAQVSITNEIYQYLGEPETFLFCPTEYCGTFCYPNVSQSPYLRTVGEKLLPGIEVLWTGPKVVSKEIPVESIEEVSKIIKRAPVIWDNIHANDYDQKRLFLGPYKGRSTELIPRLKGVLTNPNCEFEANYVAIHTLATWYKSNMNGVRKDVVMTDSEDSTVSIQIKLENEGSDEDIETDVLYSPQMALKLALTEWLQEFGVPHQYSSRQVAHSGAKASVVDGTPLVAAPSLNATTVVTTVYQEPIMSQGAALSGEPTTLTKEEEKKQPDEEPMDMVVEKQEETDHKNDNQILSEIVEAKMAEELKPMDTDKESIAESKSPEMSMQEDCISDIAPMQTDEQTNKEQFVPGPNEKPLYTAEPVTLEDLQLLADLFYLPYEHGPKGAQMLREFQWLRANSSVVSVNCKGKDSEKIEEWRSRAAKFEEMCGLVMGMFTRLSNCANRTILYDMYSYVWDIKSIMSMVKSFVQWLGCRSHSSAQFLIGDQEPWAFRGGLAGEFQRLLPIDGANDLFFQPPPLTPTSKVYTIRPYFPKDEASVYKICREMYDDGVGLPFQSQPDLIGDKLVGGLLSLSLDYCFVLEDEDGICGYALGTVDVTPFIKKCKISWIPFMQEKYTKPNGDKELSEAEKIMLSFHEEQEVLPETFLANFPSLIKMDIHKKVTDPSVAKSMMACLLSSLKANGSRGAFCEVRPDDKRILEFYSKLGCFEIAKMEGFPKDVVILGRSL

B1: TAB1 peptide PVSVPYS(O-GlcNAc)SAQSTS (peptide)
peptide: Ac-PVSVPYS(βGlcNAc)SAQSTS-NH2
SMILES: CC(=O)N[C@H]1[C@H](OC[C@H](NC(=O)[C@H](Cc2ccc(O)cc2)NC(=O)[C@@H]2CCCN2C(=O)[C@@H](NC(=O)[C@H](CO)NC(=O)[C@@H](NC(=O)[C@@H]2CCCN2C(C)=O)C(C)C)C(C)C)C(=O)N[C@@H](CO)C(=O)N[C@@H](C)C(=O)N[C@@H](CCC(N)=O)C(=O)N[C@@H](CO)C(=O)N[C@H](C(=O)N[C@@H](CO)C(N)=O)[C@@H](C)O)O[C@H](CO)[C@@H](O)[C@@H]1O
Turning to B1, the KM of the glycopeptide substrate (substrate competition assay with 4MU-GlcNAc as reporter substrate) is 0.94 mM in assay [1], above 4 mM in assay [2] and 3.6 mM in assay [3].

The record behind these values is publication PMC3476531, “Synergy of Peptide and Sugar in O-GlcNAcase Substrate Recognition” (Chemistry & Biology, 2012).
